Assay results reported in US20140087995A1 (published 2014).
Like-named read-outs stand apart in the source and are kept apart here. Numbered stars: 1 amine (or outer) side, 2 acyl side, 3 side chain; on linkers, the order of the positions; unused ones are H or OH. Bridge positions count the residues as written; N and C are the ends. Side chains are listed from the residue outwards. Ends that are not written are not given here. * marks the point of attachment. C20 diacid = O=C(O)CCCCCCCCCCCCCCCCCCC(=O)*; γGlu = O=C(O)[C@H](CCC(=O)[*:2])N[*:1]

Columns and labels:
[1] = molecular target: T1, human amylin receptor (amylin 3(a) receptor: human calcitonin receptor plus RAMP-3) (human, UniProt P30988 25-474; O60896 24-148); test: cell-based or functional assay
T1 sequence (looked up) 1: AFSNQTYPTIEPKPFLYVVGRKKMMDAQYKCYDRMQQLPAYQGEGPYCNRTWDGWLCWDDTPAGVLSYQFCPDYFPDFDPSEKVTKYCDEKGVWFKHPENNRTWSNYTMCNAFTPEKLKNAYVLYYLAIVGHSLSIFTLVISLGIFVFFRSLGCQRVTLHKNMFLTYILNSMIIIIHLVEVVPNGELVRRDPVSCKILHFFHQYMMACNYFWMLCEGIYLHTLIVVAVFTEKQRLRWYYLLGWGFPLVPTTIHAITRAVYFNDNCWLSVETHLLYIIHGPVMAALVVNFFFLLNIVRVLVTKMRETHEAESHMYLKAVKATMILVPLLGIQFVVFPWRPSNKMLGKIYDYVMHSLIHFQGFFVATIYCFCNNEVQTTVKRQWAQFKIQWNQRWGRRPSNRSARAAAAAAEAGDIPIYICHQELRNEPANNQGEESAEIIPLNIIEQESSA
T1 sequence (looked up) 2: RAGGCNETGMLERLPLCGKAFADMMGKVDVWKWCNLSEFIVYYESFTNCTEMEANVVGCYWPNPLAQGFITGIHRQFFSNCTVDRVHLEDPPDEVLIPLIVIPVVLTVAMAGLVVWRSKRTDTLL

[2] = molecular target: T2, human calcitonin receptor (human, UniProt P30988 25-474); test: cell-based or functional assay
T2 sequence (looked up): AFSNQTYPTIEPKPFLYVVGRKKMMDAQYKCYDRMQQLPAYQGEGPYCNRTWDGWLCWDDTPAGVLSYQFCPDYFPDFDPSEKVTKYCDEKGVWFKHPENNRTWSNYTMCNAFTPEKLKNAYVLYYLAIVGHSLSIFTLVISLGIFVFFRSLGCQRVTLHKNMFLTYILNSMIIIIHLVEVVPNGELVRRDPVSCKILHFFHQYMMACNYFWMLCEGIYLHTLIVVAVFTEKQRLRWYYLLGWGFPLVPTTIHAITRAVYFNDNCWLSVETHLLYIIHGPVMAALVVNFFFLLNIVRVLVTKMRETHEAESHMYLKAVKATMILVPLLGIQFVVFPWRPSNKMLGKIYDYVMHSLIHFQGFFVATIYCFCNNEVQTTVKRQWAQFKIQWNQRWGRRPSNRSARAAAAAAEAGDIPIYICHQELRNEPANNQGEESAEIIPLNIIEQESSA

[3] = molecular target: T1, human amylin receptor (amylin 3(a) …); test: cell-based or functional assay; remark: listed apart in the source
[4] = molecular target: T2, human calcitonin receptor; test: cell-based or functional assay; remark: listed apart in the source
[5] = molecular target: T1, human amylin receptor (amylin 3(a) …); test: SPA competition, displacement of 125I-rat amylin from membranes of BHK cells with human calcitonin receptor + RAMP-3 (Assay V)
Method: (§1) The binding assay was performed using scintillation proximity assay (SPA) beads (RPNQ0001) from PerkinElmer and cell membranes from the Amylin 3(a)/CRE-luc cells (as described in Assay (II)) were used. Membranes were prepared in the following way; the cells were rinsed with PBS and incubated with Versene for approximately 5 min before harvesting. The cells were flushed with PBS and the cell-suspension was centrifuged for 5 min at 1000 rpm. Cells were homogenized (ultrathurrax) in a buffer containing 20 mM Na-HEPES and 10 mM EDTA (pH 7.4) and centrifuged at 20.000 rpm for 15 min. The resulting pellet was resuspended, homogenized and centrifuged (20.000 rpm, 15 min) in a buffer containing 20 mM Na-HEPES and 0.1 mM EDTA (pH 7.4, buffer 2). The resulting pellet was resuspended in buffer 2 and protein concentration was measured (BCA protein Assay, Pierce). The homogenate was kept cold during the whole procedure. The membranes were kept at −80° C. until use. The assay was performed in a 384 well Optiplate (PerkinElmer) in a total volume of 40 ul. Membranes were mixed with SPA beads. Final concentration of membranes 35 ng/μL final and SPA beads was 0.05 mg/well. Test-compounds were dissolved in DMSO and further diluted in assay buffer (50 mM Hepes, pH 7.4, 1 mM CaCl2, 5 mM MgCl₂, 0.1% OA and 0.02% Tween20). […] The final mixture was incubated with shaking at 400 rpm for 120 min at 25° C. prior to centrifugation (1500 rpm, 10 min). Samples were analyzed on TopCounter™ (Packard). The IC₅₀ was calculated using (one site binding competition analysis) GraphPad Prism5 as a measure of receptor affinity.

[6] = molecular target: T1, human amylin receptor (amylin 3(a) …); test: as above; remark: listed apart in the source
Method: as §1

B1: N^ε1-[(4S)-4-carboxy-4-(19-carboxynonadecanoylamino)butanoyl]-[Arg17,Pro21,Pro27,His35]-h-amylin (peptide)
peptide: K([γGlu-C20 diacid])CNTATCATQRLANFLRHSSPNFGAIPSSTNVGSHTY-NH2
modifications: disulfide 2-7; N-terminus assumed
SMILES: CC[C@H](C)[C@H](NC(=O)[C@H](C)NC(=O)CNC(=O)[C@H](Cc1ccccc1)NC(=O)[C@H](CC(N)=O)NC(=O)[C@@H]1CCCN1C(=O)[C@H](CO)NC(=O)[C@H](CO)NC(=O)[C@H](Cc1c[nH]cn1)NC(=O)[C@H](CCCNC(=N)N)NC(=O)[C@H](CC(C)C)NC(=O)[C@H](Cc1ccccc1)NC(=O)[C@H](CC(N)=O)NC(=O)[C@H](C)NC(=O)[C@H](CC(C)C)NC(=O)[C@H](CCCNC(=N)N)NC(=O)[C@H](CCC(N)=O)NC(=O)[C@@H](NC(=O)[C@H](C)NC(=O)[C@@H]1CSSC[C@H](NC(=O)[C@@H](N)CCCCNC(=O)CC[C@H](NC(=O)CCCCCCCCCCCCCCCCCCC(=O)O)C(=O)O)C(=O)N[C@@H](CC(N)=O)C(=O)N[C@@H]([C@@H](C)O)C(=O)N[C@@H](C)C(=O)N[C@@H]([C@@H](C)O)C(=O)N1)[C@@H](C)O)C(=O)N1CCC[C@H]1C(=O)N[C@@H](CO)C(=O)N[C@@H](CO)C(=O)N[C@H](C(=O)N[C@@H](CC(N)=O)C(=O)N[C@H](C(=O)NCC(=O)N[C@@H](CO)C(=O)N[C@@H](Cc1c[nH]cn1)C(=O)N[C@H](C(=O)N[C@@H](Cc1ccc(O)cc1)C(N)=O)[C@@H](C)O)C(C)C)[C@@H](C)O
notes: also called compound 60
- Ratio hCT/hAmylin funct. [1]: 15.3
- hAmylin-R funct. EC50 (pM) [1]: 351 pM
- hCTR funct. EC50 (pM) [2]: 5360 pM
- Ratio hCT/hAmylin funct. [3]: 15.3
- hAmylin-R funct. EC50 (pM) [3]: 351 pM
- hCTR funct. EC50 (pM) [4]: 5360 pM
- IC50 [5]: 0.695 nM
- IC50 [6]: 0.695 nM

B2: N^ε1-[(4S)-4-carboxy-4-(19-carboxynonadecanoylamino)butanoyl]-[Glu14,Arg17,Pro21,Pro27,Pro34,His35]-h-amylin (peptide)
peptide: K([γGlu-C20 diacid])CNTATCATQRLAEFLRHSSPNFGAIPSSTNVGPHTY-NH2
modifications: disulfide 2-7
- hAmylin-R funct. EC50 (pM) [1]: 101 pM
- hCTR funct. EC50 (pM) [2]: 1450 pM
- hAmylin-R funct. EC50 (pM) [3]: 101 pM
- hCTR funct. EC50 (pM) [4]: 1450 pM
- IC50 [5]: 0.179 nM
- IC50 [6]: 0.179 nM

B3: N^ε1-[(4S)-4-carboxy-4-(19-carboxynonadecanoylamino)butanoyl]-[His14,Arg17,Pro21,Pro27,His35]-h-amylin (peptide)
peptide: K([γGlu-C20 diacid])CNTATCATQRLAHFLRHSSPNFGAIPSSTNVGSHTY-NH2
modifications: disulfide 2-7; N-terminus assumed
SMILES: CC[C@H](C)[C@H](NC(=O)[C@H](C)NC(=O)CNC(=O)[C@H](Cc1ccccc1)NC(=O)[C@H](CC(N)=O)NC(=O)[C@@H]1CCCN1C(=O)[C@H](CO)NC(=O)[C@H](CO)NC(=O)[C@H](Cc1c[nH]cn1)NC(=O)[C@H](CCCNC(=N)N)NC(=O)[C@H](CC(C)C)NC(=O)[C@H](Cc1ccccc1)NC(=O)[C@H](Cc1c[nH]cn1)NC(=O)[C@H](C)NC(=O)[C@H](CC(C)C)NC(=O)[C@H](CCCNC(=N)N)NC(=O)[C@H](CCC(N)=O)NC(=O)[C@@H](NC(=O)[C@H](C)NC(=O)[C@@H]1CSSC[C@H](NC(=O)[C@@H](N)CCCCNC(=O)CC[C@H](NC(=O)CCCCCCCCCCCCCCCCCCC(=O)O)C(=O)O)C(=O)N[C@@H](CC(N)=O)C(=O)N[C@@H]([C@@H](C)O)C(=O)N[C@@H](C)C(=O)N[C@@H]([C@@H](C)O)C(=O)N1)[C@@H](C)O)C(=O)N1CCC[C@H]1C(=O)N[C@@H](CO)C(=O)N[C@@H](CO)C(=O)N[C@H](C(=O)N[C@@H](CC(N)=O)C(=O)N[C@H](C(=O)NCC(=O)N[C@@H](CO)C(=O)N[C@@H](Cc1c[nH]cn1)C(=O)N[C@H](C(=O)N[C@@H](Cc1ccc(O)cc1)C(N)=O)[C@@H](C)O)C(C)C)[C@@H](C)O
notes: also called compound 66
- Ratio hCT/hAmylin funct. [1]: 20.1
- hAmylin-R funct. EC50 (pM) [1]: 27 pM
- hCTR funct. EC50 (pM) [2]: 542 pM
- Ratio hCT/hAmylin funct. [3]: 20.1
- hAmylin-R funct. EC50 (pM) [3]: 27 pM
- hCTR funct. EC50 (pM) [4]: 542 pM
- IC50 [5]: 0.396 nM
- IC50 [6]: 0.396 nM
